The values that follow come from patent US20220332844A1 (ORIONIS BIOSCIENCES, published 2022).

Changes are numbered by the printed parent chain.

T1: mouse FAP on transiently transfected HEK293T cells (pMET7 FLAG-mFAP) (mouse, UniProt P97321 1-761)
T1 construct: whole, on cells; not shown: FLAG tag of the plasmid pMET7 FLAG-mFAP
T1 sequence (looked up): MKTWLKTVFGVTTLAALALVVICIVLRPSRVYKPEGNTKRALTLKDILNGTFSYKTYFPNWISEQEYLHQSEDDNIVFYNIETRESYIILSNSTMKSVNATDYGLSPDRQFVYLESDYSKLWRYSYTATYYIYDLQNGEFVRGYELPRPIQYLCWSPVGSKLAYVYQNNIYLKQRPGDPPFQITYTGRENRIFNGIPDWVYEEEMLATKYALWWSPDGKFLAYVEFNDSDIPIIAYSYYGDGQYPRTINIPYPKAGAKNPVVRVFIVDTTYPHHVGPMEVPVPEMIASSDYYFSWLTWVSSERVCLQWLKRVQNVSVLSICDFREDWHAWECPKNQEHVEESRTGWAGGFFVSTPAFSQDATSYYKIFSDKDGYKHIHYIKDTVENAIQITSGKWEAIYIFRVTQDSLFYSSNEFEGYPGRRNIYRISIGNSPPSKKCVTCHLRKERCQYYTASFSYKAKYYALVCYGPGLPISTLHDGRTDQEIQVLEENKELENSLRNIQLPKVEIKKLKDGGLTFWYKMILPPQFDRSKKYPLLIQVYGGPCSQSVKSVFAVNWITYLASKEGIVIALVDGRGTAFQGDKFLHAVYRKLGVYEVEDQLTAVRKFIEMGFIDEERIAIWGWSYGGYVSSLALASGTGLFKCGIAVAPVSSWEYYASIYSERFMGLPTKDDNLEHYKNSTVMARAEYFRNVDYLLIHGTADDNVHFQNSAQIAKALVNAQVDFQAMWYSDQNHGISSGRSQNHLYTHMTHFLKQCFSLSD

T2: recombinant FAP protein (BioLegend), biotinylated (Homo sapiens (Human), UniProt Q12884 26-760, Biotinylated (sites not given) for loading on streptavidin sensors. Any vendor tag is not stated in the passages shown.)
T2 construct: Loaded on streptavidin sensors for BLI; also called biotinylated FAP
T2 sequence: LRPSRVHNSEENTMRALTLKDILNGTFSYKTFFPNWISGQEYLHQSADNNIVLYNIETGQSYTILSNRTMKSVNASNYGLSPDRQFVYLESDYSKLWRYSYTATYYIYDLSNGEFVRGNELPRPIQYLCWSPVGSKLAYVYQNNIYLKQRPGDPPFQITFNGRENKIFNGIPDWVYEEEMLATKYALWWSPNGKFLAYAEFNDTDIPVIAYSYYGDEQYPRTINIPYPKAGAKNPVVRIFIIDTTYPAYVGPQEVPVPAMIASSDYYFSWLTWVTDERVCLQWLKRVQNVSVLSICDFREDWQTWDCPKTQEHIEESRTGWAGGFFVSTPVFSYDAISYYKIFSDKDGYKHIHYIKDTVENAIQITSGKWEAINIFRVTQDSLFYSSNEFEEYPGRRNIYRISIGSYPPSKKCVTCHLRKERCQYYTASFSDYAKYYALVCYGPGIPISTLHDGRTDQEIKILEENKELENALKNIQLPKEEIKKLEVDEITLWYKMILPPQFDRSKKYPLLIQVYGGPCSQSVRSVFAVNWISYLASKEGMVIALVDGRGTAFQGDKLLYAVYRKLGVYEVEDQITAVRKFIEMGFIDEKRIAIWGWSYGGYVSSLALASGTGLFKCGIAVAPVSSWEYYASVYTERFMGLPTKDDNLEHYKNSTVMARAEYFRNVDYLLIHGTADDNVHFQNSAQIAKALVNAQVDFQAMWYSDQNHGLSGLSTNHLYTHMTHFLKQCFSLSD

B1: 2PE14 (VHH)
VHH: QVQLQESGGGLVQPGGSLRLSCAASGSTFSINAVAWYRQAPGKRRELVAGISGGGVTNYPDSVKGRFTISRDNAKNTVYLQMSSLKPEDTAVYYCNLWPPRASPGGRVYWGQGTQVTVSS
B2: 2PE36 (VHH)
VHH: B1 VHH with G105D
B3: 2PE40 (VHH)
VHH: B1 VHH with G26E, T77I
B4: 2PE17 (VHH)
VHH: B1 VHH with P14S
B5: 3PE12 (VHH)
VHH: B1 VHH with I31G, V34M, A102V, R107G
B6: 3PE42 (VHH)
VHH: B1 VHH with G16E, A24V, F29S, I31M, V34M, V56A, R107G
B7: 2PE44 (VHH)
VHH: B1 VHH with I31V, K86I
B8: 2PE42 (VHH)
VHH: B1 VHH with P14A, K64R, G105D
B9: 3PE57 (VHH)
VHH: B1 VHH with I31V, G105D
B10: 3PE93 (VHH)
VHH: B1 VHH with G16E, A24V, F29S, I31M, V34M, V56A, V63M, R107G
B11: P-1934: 3PE42_M31P (VHH)
VHH: B1 VHH with G16E, A24V, F29S, I31P, V34M, V56A, R107G
notes: also called pET28 PelB-3PE42_M42P
B12: P-1937: 3PE42_M31S (VHH)
VHH: B1 VHH with G16E, A24V, F29S, I31S, V34M, V56A, R107G
notes: also called pET28 PelB-3PE42_M42S
B13: P-1931: 3PE42_M31K (VHH)
VHH: B1 VHH with G16E, A24V, F29S, I31K, V34M, V56A, R107G
notes: also called pET28 PelB-3PE42_M42K
B14: P-1935: 3PE42_M31Q (VHH)
VHH: B1 VHH with G16E, A24V, F29S, I31Q, V34M, V56A, R107G
notes: also called pET28 PelB-3PE42_M42Q
B15: P-1939: 3PE42_M31V (VHH)
VHH: B1 VHH with G16E, A24V, F29S, I31V, V34M, V56A, R107G
notes: also called pET28 PelB-3PE42_M42V
B16: P-1933: 3PE42_M31N (VHH)
VHH: B1 VHH with G16E, A24V, F29S, I31N, V34M, V56A, R107G
notes: also called pET28 PelB-3PE42_M42N
B17: P-1930: 3PE42_M31I (VHH)
VHH: B1 VHH with G16E, A24V, F29S, V34M, V56A, R107G
notes: also called pET28 PelB-3PE42_M42I
B18: P-1941: 3PE42_M31Y (VHH)
VHH: B1 VHH with G16E, A24V, F29S, I31Y, V34M, V56A, R107G
notes: also called pET28 PelB-3PE42_M42Y
B19: P-1940: 3PE42_M31W (VHH)
VHH: B1 VHH with G16E, A24V, F29S, I31W, V34M, V56A, R107G
notes: also called pET28 PelB-3PE42_M42W
B20: P-1936: 3PE42_M31R (VHH)
VHH: B1 VHH with G16E, A24V, F29S, I31R, V34M, V56A, R107G
notes: also called pET28 PelB-3PE42_M42R
B21: P-1932: 3PE42_M31L (VHH)
VHH: B1 VHH with G16E, A24V, F29S, I31L, V34M, V56A, R107G
notes: also called pET28 PelB-3PE42_M42L
B22: P-1938: 3PE42_M31T (VHH)
VHH: B1 VHH with G16E, A24V, F29S, I31T, V34M, V56A, R107G
notes: also called pET28 PelB-3PE42_M42T

The target of one assay is T1, mouse FAP on transiently transfected …. Nature of the assay: FACS, serial dilution of purified VHH on transfected HEK293T cells. (In general: In flow cytometry, cells or beads pass a laser one at a time.)
As to B1, the binding result was “binds”. In the case of B2, the binding result is given as “binds”. Consider B3, for which the binding result is given as “binds”. On to B4, for which the binding result is on record as “binds”. On the same count and under the same terms, the same measure for B5: “binds”; for B6: “binds”; for B7: “binds”. With B8, the binding result is “binds”. With B9, the binding result is “binds”.

Turning to B10, the binding result is recorded as “binds”.

For a further assay, the target named is T2, recombinant FAP protein (BioLegend), …. As to the kind of experiment: BLI (Octet RED96), biotinylated FAP on streptavidin sensors. A general note: BLI is a label-free optical method that tracks binding on a fibre tip over time.
As to B11, the dissociation constant Kd (usually the equilibrium constant for the complex coming apart) came out at 1.34 nM. For B12, the Kd is 0.613 nM.

With B13, the Kd was 0.851 nM. In the case of B14, the dissociation constant Kd stood at 0.214 nM. In the case of B15, the dissociation constant Kd stood at 2.45 nM. Turning to B16, the Kd amounted to 0.567 nM.

As to B17, the Kd is 2.87 nM. For B18, the dissociation constant (Kd) worked out at 1.12 nM. As for B19, the dissociation constant Kd is 0.0945 nM. For the molecule B20, the Kd is 0.0276 nM. Still for that read-out and setting: the same measure for B21: 0.872 nM; for B22: 1.16 nM.
